In publication PMC12808100 (Nature Communications, 2025):
*: point of attachment. Biotin = O=C1N[C@H]2[C@H](CS[C@H]2CCCCC(=O)*)N1; TTDS = Trioxatridecan-succinamic acid linker

T1: EPS15 (human (endogenous in Jurkat), UniProt P42566 1-896)
T1 construct: EPS15, EH protein with three EH domains, endogenous in Jurkat E6.1 extract, detected by western blot with an EPS15 antibody; also called endogenous EPS15; EH protein with three EH domains; source: endogenous, total Jurkat extract
T1 sequence (looked up): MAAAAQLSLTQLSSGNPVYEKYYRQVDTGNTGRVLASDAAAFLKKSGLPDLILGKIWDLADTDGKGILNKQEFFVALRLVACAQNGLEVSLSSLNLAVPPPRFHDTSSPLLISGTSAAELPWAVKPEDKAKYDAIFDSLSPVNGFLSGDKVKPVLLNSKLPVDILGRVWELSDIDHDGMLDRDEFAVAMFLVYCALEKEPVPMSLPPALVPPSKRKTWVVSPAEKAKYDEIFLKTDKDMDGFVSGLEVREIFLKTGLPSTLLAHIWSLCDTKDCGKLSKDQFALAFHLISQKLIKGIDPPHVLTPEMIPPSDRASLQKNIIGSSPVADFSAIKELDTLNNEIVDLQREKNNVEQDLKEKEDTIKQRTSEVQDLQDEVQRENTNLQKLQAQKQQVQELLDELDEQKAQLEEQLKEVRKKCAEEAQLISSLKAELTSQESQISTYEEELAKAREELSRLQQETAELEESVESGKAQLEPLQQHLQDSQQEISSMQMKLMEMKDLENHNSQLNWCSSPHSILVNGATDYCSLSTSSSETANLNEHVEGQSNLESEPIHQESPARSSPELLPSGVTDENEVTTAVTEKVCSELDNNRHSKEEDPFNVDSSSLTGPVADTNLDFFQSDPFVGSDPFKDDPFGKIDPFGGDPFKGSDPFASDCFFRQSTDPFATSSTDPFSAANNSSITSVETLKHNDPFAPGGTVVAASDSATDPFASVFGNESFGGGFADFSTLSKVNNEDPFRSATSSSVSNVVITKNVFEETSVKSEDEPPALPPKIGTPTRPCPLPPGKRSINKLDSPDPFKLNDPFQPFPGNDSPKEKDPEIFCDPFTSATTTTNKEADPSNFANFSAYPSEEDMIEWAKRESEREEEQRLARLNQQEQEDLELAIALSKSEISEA


Biological target: T1, EPS15
Assay: native holdup (nHU) titration with western blot; biotinylated peptide bait on streptavidin resin, bait-saturated and control (biotin) resin mixed at various proportions; total Jurkat extract as analyte; 4 °C, 2 h; endogenous POLE and EPS15 left in the supernatant quantified by western blot; apparent dissociation constants
Conditions: one partner purified

Row | Kd [µM] | Binder
1 | 1 | RSSPNPFITGLTRTNPFSDRTAAPGNPFRAKS (HELM PEPTIDE1{[O=C1N[C@H]2[C@H](CS[C@H]2CCCCC(=O)[*:2])N1].[O=C(CCCCCN[*:1])[*:2]].R.S.S.P.N.P.F.I.T.G.L.T.R.T.N.P.F.S.D.R.T.A.A.P.G.N.P.F.R.A.K.S.[am]}$$$$V2.0; SMILES CC[C@H](C)[C@H](NC(=O)[C@H](Cc1ccccc1)NC(=O)[C@@H]1CCCN1C(=O)[C@H](CC(N)=O)NC(=O)[C@@H]1CCCN1C(=O)[C@H](CO)NC(=O)[C@H](CO)NC(=O)[C@H](CCCNC(=N)N)NC(=O)CCCCCNC(=O)CCCC[C@@H]1SC[C@@H]2NC(=O)N[C@@H]21)C(=O)N[C@H](C(=O)NCC(=O)N[C@@H](CC(C)C)C(=O)N[C@H](C(=O)N[C@@H](CCCNC(=N)N)C(=O)N[C@H](C(=O)N[C@@H](CC(N)=O)C(=O)N1CCC[C@H]1C(=O)N[C@@H](Cc1ccccc1)C(=O)N[C@@H](CO)C(=O)N[C@@H](CC(=O)O)C(=O)N[C@@H](CCCNC(=N)N)C(=O)N[C@H](C(=O)N[C@@H](C)C(=O)N[C@@H](C)C(=O)N1CCC[C@H]1C(=O)NCC(=O)N[C@@H](CC(N)=O)C(=O)N1CCC[C@H]1C(=O)N[C@@H](Cc1ccccc1)C(=O)N[C@@H](CCCNC(=N)N)C(=O)N[C@@H](C)C(=O)N[C@@H](CCCCN)C(=O)N[C@@H](CO)C(N)=O)[C@@H](C)O)[C@@H](C)O)[C@@H](C)O)[C@@H](C)O, SYNJ1, residues 1390-1421, contains three NPF motifs; also called SYNJ1_1390-1421; triple motif of SYNJ1; source: synthetic peptide; bought: Synpeptide) [NPF motif peptide of SYNJ1 (residues 1390-1421)]
2 | > 60 | {Biotin-TTDS}-GPAAARRNPFARLDNRPR-NH2 (Protein downstream neighbor of Son (DONSON), residues 71-88; also called DONSON_71-88; DONSON_718-88 (as printed in the sheet); source: synthetic peptide (ABI 443 A synthesizer, Fmoc strategy)) [NPF motif peptide of DONSON (residues 71-88)]
3 | > 20 | GPAAARRNPFSDRDNRPR (HELM PEPTIDE1{[O=C1N[C@H]2[C@H](CS[C@H]2CCCCC(=O)[*:2])N1].[O=C(CCCCCN[*:1])[*:2]].G.P.A.A.A.R.R.N.P.F.S.D.R.D.N.R.P.R.[am]}$$$$V2.0; SMILES C[C@H](NC(=O)[C@H](C)NC(=O)[C@@H]1CCCN1C(=O)CNC(=O)CCCCCNC(=O)CCCC[C@@H]1SC[C@@H]2NC(=O)N[C@@H]21)C(=O)N[C@@H](C)C(=O)N[C@@H](CCCNC(=N)N)C(=O)N[C@@H](CCCNC(=N)N)C(=O)N[C@@H](CC(N)=O)C(=O)N1CCC[C@H]1C(=O)N[C@@H](Cc1ccccc1)C(=O)N[C@@H](CO)C(=O)N[C@@H](CC(=O)O)C(=O)N[C@@H](CCCNC(=N)N)C(=O)N[C@@H](CC(=O)O)C(=O)N[C@@H](CC(N)=O)C(=O)N[C@@H](CCCNC(=N)N)C(=O)N1CCC[C@H]1C(=O)N[C@@H](CCCNC(=N)N)C(N)=O) [DONSON-SYNJ1 chimera peptide, C-terminal flank replaced]
4 | > 30 | GPAATRTNPFARLDNRPR (HELM PEPTIDE1{[O=C1N[C@H]2[C@H](CS[C@H]2CCCCC(=O)[*:2])N1].[O=C(CCCCCN[*:1])[*:2]].G.P.A.A.T.R.T.N.P.F.A.R.L.D.N.R.P.R.[am]}$$$$V2.0; SMILES CC(C)C[C@H](NC(=O)[C@H](CCCNC(=N)N)NC(=O)[C@H](C)NC(=O)[C@H](Cc1ccccc1)NC(=O)[C@@H]1CCCN1C(=O)[C@H](CC(N)=O)NC(=O)[C@@H](NC(=O)[C@H](CCCNC(=N)N)NC(=O)[C@@H](NC(=O)[C@H](C)NC(=O)[C@H](C)NC(=O)[C@@H]1CCCN1C(=O)CNC(=O)CCCCCNC(=O)CCCC[C@@H]1SC[C@@H]2NC(=O)N[C@@H]21)[C@@H](C)O)[C@@H](C)O)C(=O)N[C@@H](CC(=O)O)C(=O)N[C@@H](CC(N)=O)C(=O)N[C@@H](CCCNC(=N)N)C(=O)N1CCC[C@H]1C(=O)N[C@@H](CCCNC(=N)N)C(N)=O) [DONSON-SYNJ1 chimera peptide, N-terminal flank replaced]
